Reference: PMC9912195, “The 3D‐structure, kinetics and dynamics of the E. coli nitroreductase NfsA with NADP ^+ provide glimpses of its catalytic mechanism” (Febs Letters, 2022)

Tests used:
[1] = target: T1, NfsA (Escherichia coli, UniProt P17117); test: stopped-flow re-oxidation of reduced enzyme, […] nm, anaerobic; assay type: biochemical; settings: dithionite-reduced enzyme
T1 construct: full-length, untagged, from pET24 derivative pPS1341A1 in E. coli BL21(lambda DE3); 240 amino acids

[2] = target: T1, NfsA; test: steady-state inhibition of nitrofurazone reduction, global ping-pong fit, […] nm; assay type: biochemical
[3] = target: T1, NfsA; test: steady-state kinetics; assay type: biochemical; settings: co-substrate NADPH
[4] = tested on: NC(=O)N/N=C/c1ccc([N+](=O)[O-])o1; test: purified protein; assay type: biochemical, Escherichia coli; settings: co-substrate NADPH, 10 mM Tris pH 7.0, 50 mM NaCl, 4.5% DMSO, 25 °C
[5] = tested on: NC(=O)C1=CN([C@@H]2O[C@H](COP(=O)(O)OP(=O)(O)OC[C@H]3O[C@@H](n4cnc5c(N)ncnc54)[C@H](O)[C@@H]3O)[C@@H](O)[C@H]2O)C=CC1; test: purified protein; assay type: biochemical, Escherichia coli; settings: 100 μM nitrofurazone, 10 mM Tris pH 7.0, 4.5% DMSO, 25 °C
[6] = tested on: NC(=O)C1=CN([C@@H]2O[C@H](COP(=O)(O)OP(=O)(O)OC[C@H]3O[C@@H](n4cnc5c(N)ncnc54)[C@H](OP(=O)(O)O)[C@@H]3O)[C@@H](O)[C@H]2O)C=CC1; test: purified protein; assay type: biochemical, Escherichia coli; settings: 100 μM nitrofurazone, 10 mM Tris pH 7.0, 4.5% DMSO, 25 °C

T1 sequence (P17117 whole entry): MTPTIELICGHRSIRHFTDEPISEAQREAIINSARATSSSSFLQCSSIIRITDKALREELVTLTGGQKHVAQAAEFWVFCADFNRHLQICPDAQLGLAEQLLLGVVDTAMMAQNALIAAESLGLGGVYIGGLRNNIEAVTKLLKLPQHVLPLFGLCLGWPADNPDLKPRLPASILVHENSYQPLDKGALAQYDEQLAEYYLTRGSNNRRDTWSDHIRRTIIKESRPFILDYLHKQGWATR

NC(=O)c1cc(N2CC2)c([N+](=O)[O-])cc1[N+](=O)[O-] [CB1954, 5 aziridin‐1‐yl‐2,4 dinitrobenzamide]
K d ([1]; 10 mM Tris pH 7, 5% DMSO, 25 °C, unreliable (extrapolated beyond highest concentration 500 μM)): 660 ± 90 µM

NC(=O)c1ccc[n+]([C@@H]2O[C@H](COP(=O)(O)OP(=O)(O)OC[C@H]3O[C@@H](n4cnc5c(N)ncnc54)[C@H](OP(=O)(O)O)[C@@H]3O)[C@@H](O)[C@H]2O)c1 [NADP^+]
Ki [2]: 250 ± 70 µM

CC1=CC(=O)c2ccccc2C1=O [menadione]
Km [3]: 11 ± 2 µM
K d ([1]; 10 mM Tris pH 7, 25 °C, unreliable (extrapolated, highest concentration 100 μM)): 330 ± 115 µM

NfsA (Escherichia coli K-12)
Km [4]: 12 µM
kcat [4]: 23.1 s⁻¹
Km [5]: 700 ± 100 µM
kcat [5]: 20 ± 1 s⁻¹
kcat/Km [5]: 27000 ± 3000 M⁻¹ s⁻¹
Km [6]: 19 ± 4 µM
kcat [6]: 24 ± 1 s⁻¹
kcat/Km [6]: 1.2e+06 ± 200000 M⁻¹ s⁻¹
